PMC5397179

What was measured:
[1] = system: PcrA-sCt (C-terminal Tudor-like domain) (Geobacillus stearothermophilus); experiment: EMSA; settings: no binding detected up to 5 uM; 2.5 mM Mg2+; EMSA: 50 nM (so in the source) HEPES-KOH pH 7.5, 100 mM KCl, 2.5 mM MgCl2, 0.1 mg/mL BSA, 1 mM (reagent truncated in material); 20 nM DNA; TBE-PAGE; temperature not …
RNAP subunit α = experiment: pulldown quantified by mass spectrometry; settings: parent: est. 6.2; read off a plot
RNAP subunit β = experiment: pulldown quantified by mass spectrometry; settings: parent: est. 16; read off a plot
RNAP subunit ω = experiment: pulldown quantified by mass spectrometry; settings: parent: est. 13; read off a plot
RNAP subunit β' = experiment: pulldown quantified by mass spectrometry; settings: parent: est. 12; read off a plot
RNAP subunit δ = experiment: pulldown quantified by mass spectrometry; settings: parent: est. 12; read off a plot

147 base ssDNA oligonucleotide was tested, and the Kd [1] was > 5 µM.
In the case of 147 bp dsDNA, the Kd [1] is reported as > 5 µM.
With “Biotinylated full length PcrA (Geobacillus stearothermophilus), wild type (from UniProt P56255) K712A” the other: Relative Ion Score (RNAP subunit α) was 2.7, the other: Relative Ion Score (RNAP subunit β) was 4.5 and the other: Relative Ion Score (RNAP subunit ω) was 4.7. It also gave an other: Relative Ion Score (RNAP subunit β') of 3.6 and an other: Relative Ion Score (RNAP subunit δ) of 3.1.
“Biotinylated full length PcrA (Geobacillus stearothermophilus), wild type (from UniProt P56255) L714A” showed an other: Relative Ion Score (RNAP subunit α) of 2.7, an other: Relative Ion Score (RNAP subunit β) of 4.1 and an other: Relative Ion Score (RNAP subunit ω) of 2.6. The other: Relative Ion Score (RNAP subunit β') was 2.8 and the other: Relative Ion Score (RNAP subunit δ) was 3.6.
